Assay results: patent US20160009801A1 (EMORY UNIVERSITY, published 2016)

T1: wild-type murine GPIba on WT (C57BL/6J) mouse platelets (mouse, UniProt O35930 17-734)
T1 construct: whole, on cells; also called mouse GPIba; WT mouse platelets
T1 sequence (looked up): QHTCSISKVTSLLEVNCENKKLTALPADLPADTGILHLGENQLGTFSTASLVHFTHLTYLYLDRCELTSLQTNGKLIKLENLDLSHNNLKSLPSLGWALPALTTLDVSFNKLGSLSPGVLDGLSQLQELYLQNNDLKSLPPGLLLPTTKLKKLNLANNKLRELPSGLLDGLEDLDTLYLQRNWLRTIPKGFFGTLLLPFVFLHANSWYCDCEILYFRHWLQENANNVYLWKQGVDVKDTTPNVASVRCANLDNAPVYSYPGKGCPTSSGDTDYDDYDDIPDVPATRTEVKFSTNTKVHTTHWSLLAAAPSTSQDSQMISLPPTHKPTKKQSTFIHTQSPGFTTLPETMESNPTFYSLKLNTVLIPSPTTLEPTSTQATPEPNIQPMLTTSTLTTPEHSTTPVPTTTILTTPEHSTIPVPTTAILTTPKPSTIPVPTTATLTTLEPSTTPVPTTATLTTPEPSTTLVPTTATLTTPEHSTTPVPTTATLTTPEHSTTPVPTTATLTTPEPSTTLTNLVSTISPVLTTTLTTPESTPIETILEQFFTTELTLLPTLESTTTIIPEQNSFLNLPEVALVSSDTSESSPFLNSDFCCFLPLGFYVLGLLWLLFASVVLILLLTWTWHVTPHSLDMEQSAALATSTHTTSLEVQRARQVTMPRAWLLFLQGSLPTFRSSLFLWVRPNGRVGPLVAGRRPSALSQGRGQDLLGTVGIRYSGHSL


Key:
[1] = biological target: T2, purified human GPIb-IX complex (human, UniProt P07359 17-652; P13224 26-206; P14770 17-177); experiment: ELISA, purified mAb titrated on immobilized purified human GPIb-IX, fitted Kd
T2 construct: mature; Native complex purified from outdated human apheresis platelets; also called purified human glycoprotein (GP)Ib-IX; immobilized GPIb-IX
Procedure: (A, C, D) GPIb-IX or the peptide was immobilized in microtiter plates. Purified mAbs, each identified by the clone name and colored as indicated, and negative controls, in the form of mouse IgG or BSA, were added to the coated wells. The bound Ab was detected with biotinylated goat anti-mouse IgG. Data are presented as the mean SD (n=3).
After incubation in the blocking buffer (20 mmol L⁻¹ HEPES, 0.2 mol L⁻¹ NaCl, 0.05% Tween-20, 2% BSA, pH 7.4) at room temperature (RT) for 2 h, different doses of normal mouse IgG or purified mAb dissolved in the blocking buffer were added to the wells and incubated for 1 h. The wells were then washed three times with the blocking buffer without BSA and incubated for an additional 1 h with biotinylated goat anti-mouse IgG (1:50 in the blocking buffer). After three washes, the wells were incubated for 1 h with streptavidin alkaline phosphatase (1:2000 in the blocking buffer).

[2] = biological target: T1, wild-type murine GPIba on WT (C57BL/6J) …; experiment: flow cytometry, biotin-labeled 5G6 on mouse whole blood, gated on platelets, FITC-streptavidin
Procedure: The binding to platelets was analyzed by flow cytometry with gating specific on platelets.

[3] = biological target: T3, human glycoprotein Ib alpha (GPIba) on platelets (human, UniProt P07359 17-652); experiment: flow cytometry on washed human platelets, FITC goat anti-mouse IgG
T3 construct: whole, on cells; On platelets GPIba is part of the GPIb-IX-V complex; also called human GPIba; washed human platelets

Kd [1] [nM] | binding result [2] | binding result [3] | Binder
3.29 | no binding (tested: 4 µg mL^-1) | – | monoclonal antibody 5G6 (antibody, V domains shown, Mouse hybridoma mAb raised against the human GPIba Glu455-Phe478 peptide; also called clone 5G6; 5G6.B4) VH: QVTLKESGPGILQPSQTLSLTCSFSGFSLSTSNMGVVWIRQPSGKGLEWLLHILWNDGKFYNPALKSRLTISKDTYNNQVFLKIANVDTADTATYYCARLFTTTTSGYFDVWGAGTTVTVSS VL: DIQMTQSPASLSASVGETVTITCRASGNIYNYLAWYQQKQGKSPQLLVYNAKTLADGVPSRFSGSGSGTQYSLKINSLQPEDFGSYFCQHFWDTPWTFGGGTKLEIK
28.2 | – | – | monoclonal antibody 15C6 (antibody, V domains shown, Mouse hybridoma mAb; also called 15C6.D3) VH: QVTLKESGPGILQPSQTLSLTCSFSGFSLSTSNMGVVWIRQSSGKGLEWLLHILWNDGKFYNPALKSRLTISKDTYNNQVFLKIANVDTADTATYYCARLFSTTTSGYFDVWGAGTTVTVSS VL: DIQMTQSPASLSASVGETVTITCRASGNIHNYLAWYQQKQGKSPQLLVYNAETLADGVPSRFSGSESGTQYSLKINSLQPEDFGTYYCQHFWDTPWTFGGGTKLEIK
– | – | binds | monoclonal antibody 3D1 (antibody, V domains shown, Mouse hybridoma mAb; also called 3D1.C1; 3D1.E3) VH: QIQLVQSGPELKKPGETVKISCKASGYTFTDFAMHWVKQAPRKGLKWMGWINTETGEPTYADDFKGRFAFSLGTSASTAFLQINNLKNEDTATYFCSSDPLDYWGQGTTLTVSS VL: DVVVTQTPLSLPVSFGDQVSISCRSSQSLTNSYGNTYLSWFLHKPGQSPQLLIYEISNRFSGVPDRFSGSGSGTDFTLKISTIKPEDLGIYYCLQGTHQPWTFGGGTKLEIK
